US20240228645A1

Columns and labels:
[1] = target: hBAFF-R-hFc-His fusion protein (human) (UniProt Q96RJ3); assay: yeast surface display flow cytometry, before challenge: 100 pM hBAFFR-Fc biotin for 1 hr at RT; other quadrants Q1 44.1, Q3 9.77E-3, Q4 14.6
[2] = target: hBAFF-R-hFc-His fusion protein (human) (UniProt Q96RJ3); assay: yeast surface display flow cytometry, after challenge: 100 pM hBAFFR-Fc biotin for 1 hr at RT, then 1 mM (so in the source); paragraph 270 says 1 uM) nonbiotinylated hBAFFR-Fc, t = 120 min; other quadrants Q1 64.5, Q3 0.050, Q4 21.0
[3] = target: hBAFF-R-hFc-His fusion protein (human) (UniProt Q96RJ3); assay: yeast surface display flow cytometry; hBAFF-R-hFc-His (concentration not given)
[4] = target: hBAFF-R-hFc-His fusion protein (human) (UniProt Q96RJ3); assay: yeast surface display flow cytometry, after challenge: 100 pM hBAFFR-Fc biotin, then 1 mM (so in the source); paragraph 270 says 1 uM) nonbiotinylated hBAFFR-Fc, t = 120 min
[5] = target: hBAFF-R-hFc-His fusion protein (human) (UniProt Q96RJ3); assay: yeast surface display flow cytometry; hBAFF-R-hFc-His (concentration not given); other quadrants Q1 0.17, Q3 10.5, Q4 22.3
[6] = target: hBAFF-R-hFc-His fusion protein (human) (UniProt Q96RJ3); assay: yeast surface display flow cytometry; hBAFF-R-hFc-His (concentration not given); other quadrants Q1 0.34, Q3 5.47, Q4 34.4
[7] = target: hBAFF-R-hFc-His fusion protein (human) (UniProt Q96RJ3); assay: yeast surface display flow cytometry; hBAFF-R-hFc-His (concentration not given); other quadrants Q1 0.35, Q3 13.0, Q4 28.5
[8] = target: PSR; assay: PSR assay: antibody on Protein A coated beads, biotinylated PSR, SA-PE, flow cytometry; +PSR panel, other quadrants Q1 72.8, Q3 7.72E-3, Q4 0.29; without PSR Q2 0
[9] = target: human BAFF-R expressed on cells (hBAFF-R-CHO isogenic CHO cells; BAFF-R+ cancer cells) (human) (UniProt Q96RJ3); assay: cell-based blocking assay; MFI of BAFF-biotin bound to CHO cells expressing human BAFF-R in the presence of the control antibody
[10] = target: PSR; assay: PSR assay: antibody on Protein A coated beads, biotinylated PSR, SA-PE, flow cytometry; +PSR panel, other quadrants Q1 98.8, Q3 0, Q4 0.048

## ianalumab-based scFv benchmark control displayed on yeast
[1]
  Q2, percent of events positive for scFv expression and for antigen binding, before challenge: 41.3
[2]
  Q2, percent of events positive for scFv expression and for antigen binding, after challenge: 14.4
[3]
  Gated lane, percent of events in the drawn gate: 0.3
  Gated, percent of events in the drawn gate: 0.72
[4]
  Iana (drawn gate), percent of events, after challenge: 0.13
[5]
  Q2, percent of events positive for scFv expression and for antigen binding: 67
[6]
  Q2, percent of events positive for scFv expression and for antigen binding: 59.5
[7]
  Q2, percent of events positive for scFv expression and for antigen binding: 58.2

## Ixekuzumab (antibody)
[8]
  Q2, percent of beads positive for FITC and for PSR binding (PE), +PSR: 27.1

## Human IgG1k (antibody)
[9]
  Minimum (MFI): 68000 MFI

## Trastuzumab (antibody)
[10]
  Q2, percent of beads positive for FITC and for PSR binding (PE), +PSR: 1.18
